Numbering of substitutions follows the chain as printed.
What was measured:
Aβ1-42 polypeptide [1] = biological target: T1, Aβ1-42 polypeptide (human); assay: ELISA EC50 on Aβ42 monomer, 2 ml transient transfection; table note: '-' means no combination; expression 68.4 mg/L
T1 construct: Synthetic peptide; also called Aβ1-42 monomer; Aβ monomer

Aβ1-42 polypeptide [2] = biological target: T1, Aβ1-42 polypeptide; assay: ELISA EC50 on Aβ42 monomer, 2 ml transient transfection; table note: '-' means no combination; expression 7.72 mg/L
Aβ1-42 polypeptide [3] = biological target: T1, Aβ1-42 polypeptide; assay: ELISA EC50 on Aβ42 monomer, 2 ml transient transfection; table note: '-' means no combination; expression 6.14 mg/L

T1 sequence (peptide, as listed by the source): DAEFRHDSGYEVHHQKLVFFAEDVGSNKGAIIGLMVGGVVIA

B1: 066-4.26.14H1L5 (antibody, human IgG1, V domains shown)
VH: EVQLVESGGGLVKPGGSLRLSCAASGFTFRSYAMSWVRQAPGKGLEWVASISTTSNTYYPDSVKGRFTTSRDNAKNSLYLQMNSLRAEDTAVYYCGRGVITNQAWFAYWGQGTLVTVSS
VL: EIVLTQSPDFQSVTPKEKVTITCRASQSISNNLHWYQQKPDQSPKLLIKYASQSISGVPSRFSGSGSGTDFTLTINSLEAEDAATYYCQQSNSWPLTFGQGTKVEIKR
notes: Humanized full-length antibody; human IgG1 heavy constant and human kappa light constant (vectors pGS003-hIgG1CH, pGS003-hIgKCL)
binding result (Aβ1-42 polypeptide [1]): no binding

B2: 066-4.26.14H2L4 (antibody, human IgG1, kappa, V domains shown)
VH: B1 VH with A40T, G42E, G44R, L78V, N83S, L114T
VL: EIVLTQSPGTLSLSPGERATLSCRASQSISNNLHWYQQKPGQAPRLLIKYASQSISGIPDRFSGSGSGTDFTLTISRLEPEDFAVYYCQQSNSWPLTFGGGTKVEIKR
notes: as for B1
binding result (Aβ1-42 polypeptide [2]): no binding

B3: 066-4.26.14H2L5 (antibody, human IgG1, kappa, V domains shown)
VH: B1 VH with A40T, G42E, G44R, L78V, N83S, L114T
VL: B1 VL
notes: as for B1
binding result (Aβ1-42 polypeptide [3]): no binding

Reference: US20220242936A1 (CHANGCHUN GENESCIENCE PHARMACEUTICAL, published 2022)
